We go through 5 variants from IntAct's records for PubMed 36931259.

Sequences and labels used below:
B1: 14-3-3 protein sigma (Homo sapiens), P31947 (parent)
chain: MERASLIQKAKLAEQAERYEDMAAFMKGAVEKGEELSCEERNLLSVAYKNVVGGQRAAWRVLSSIEQKSNEEGSEEKGPEVREYREKVETELQGVCDTVLGLLDSHLIKEAGDAESRVFYLKMKGDYYRYLAEVATGDDKKRIIDSARSAYQEAMDISKKEMPPTNPIRLGLALNFSVFHYEIANSPEEAISLAKTTFDEAMADLHTLSEDSYKDSTLIMQLLRDNLTLWTADNAGEEGGEAPQEPQS
partner: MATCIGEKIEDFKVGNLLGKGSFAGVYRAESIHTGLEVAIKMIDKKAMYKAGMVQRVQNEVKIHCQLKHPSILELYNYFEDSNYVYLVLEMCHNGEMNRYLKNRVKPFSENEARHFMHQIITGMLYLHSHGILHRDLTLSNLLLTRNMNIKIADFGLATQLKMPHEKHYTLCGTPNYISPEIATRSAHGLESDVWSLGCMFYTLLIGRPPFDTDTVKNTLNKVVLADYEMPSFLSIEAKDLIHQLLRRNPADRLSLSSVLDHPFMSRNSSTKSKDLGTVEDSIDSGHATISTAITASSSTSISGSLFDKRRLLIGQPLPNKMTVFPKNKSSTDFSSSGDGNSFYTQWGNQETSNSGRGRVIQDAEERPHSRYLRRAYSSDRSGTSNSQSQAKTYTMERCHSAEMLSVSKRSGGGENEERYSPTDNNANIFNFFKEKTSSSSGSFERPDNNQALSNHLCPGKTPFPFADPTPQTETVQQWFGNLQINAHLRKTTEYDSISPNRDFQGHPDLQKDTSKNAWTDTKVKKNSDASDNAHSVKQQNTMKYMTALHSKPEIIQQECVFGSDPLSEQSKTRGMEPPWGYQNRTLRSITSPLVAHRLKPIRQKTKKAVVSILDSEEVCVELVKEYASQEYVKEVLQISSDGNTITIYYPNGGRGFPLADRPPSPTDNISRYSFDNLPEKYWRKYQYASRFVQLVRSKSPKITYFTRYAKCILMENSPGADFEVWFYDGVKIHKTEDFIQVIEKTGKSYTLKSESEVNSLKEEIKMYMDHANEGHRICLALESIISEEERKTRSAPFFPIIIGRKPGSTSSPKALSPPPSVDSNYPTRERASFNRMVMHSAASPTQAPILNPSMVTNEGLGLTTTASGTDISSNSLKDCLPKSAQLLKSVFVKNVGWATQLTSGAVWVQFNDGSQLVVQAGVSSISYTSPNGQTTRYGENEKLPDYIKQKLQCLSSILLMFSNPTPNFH
B2: 14-3-3 protein sigma (Homo sapiens), P31947 (parent)
chain: B1 chain
partner: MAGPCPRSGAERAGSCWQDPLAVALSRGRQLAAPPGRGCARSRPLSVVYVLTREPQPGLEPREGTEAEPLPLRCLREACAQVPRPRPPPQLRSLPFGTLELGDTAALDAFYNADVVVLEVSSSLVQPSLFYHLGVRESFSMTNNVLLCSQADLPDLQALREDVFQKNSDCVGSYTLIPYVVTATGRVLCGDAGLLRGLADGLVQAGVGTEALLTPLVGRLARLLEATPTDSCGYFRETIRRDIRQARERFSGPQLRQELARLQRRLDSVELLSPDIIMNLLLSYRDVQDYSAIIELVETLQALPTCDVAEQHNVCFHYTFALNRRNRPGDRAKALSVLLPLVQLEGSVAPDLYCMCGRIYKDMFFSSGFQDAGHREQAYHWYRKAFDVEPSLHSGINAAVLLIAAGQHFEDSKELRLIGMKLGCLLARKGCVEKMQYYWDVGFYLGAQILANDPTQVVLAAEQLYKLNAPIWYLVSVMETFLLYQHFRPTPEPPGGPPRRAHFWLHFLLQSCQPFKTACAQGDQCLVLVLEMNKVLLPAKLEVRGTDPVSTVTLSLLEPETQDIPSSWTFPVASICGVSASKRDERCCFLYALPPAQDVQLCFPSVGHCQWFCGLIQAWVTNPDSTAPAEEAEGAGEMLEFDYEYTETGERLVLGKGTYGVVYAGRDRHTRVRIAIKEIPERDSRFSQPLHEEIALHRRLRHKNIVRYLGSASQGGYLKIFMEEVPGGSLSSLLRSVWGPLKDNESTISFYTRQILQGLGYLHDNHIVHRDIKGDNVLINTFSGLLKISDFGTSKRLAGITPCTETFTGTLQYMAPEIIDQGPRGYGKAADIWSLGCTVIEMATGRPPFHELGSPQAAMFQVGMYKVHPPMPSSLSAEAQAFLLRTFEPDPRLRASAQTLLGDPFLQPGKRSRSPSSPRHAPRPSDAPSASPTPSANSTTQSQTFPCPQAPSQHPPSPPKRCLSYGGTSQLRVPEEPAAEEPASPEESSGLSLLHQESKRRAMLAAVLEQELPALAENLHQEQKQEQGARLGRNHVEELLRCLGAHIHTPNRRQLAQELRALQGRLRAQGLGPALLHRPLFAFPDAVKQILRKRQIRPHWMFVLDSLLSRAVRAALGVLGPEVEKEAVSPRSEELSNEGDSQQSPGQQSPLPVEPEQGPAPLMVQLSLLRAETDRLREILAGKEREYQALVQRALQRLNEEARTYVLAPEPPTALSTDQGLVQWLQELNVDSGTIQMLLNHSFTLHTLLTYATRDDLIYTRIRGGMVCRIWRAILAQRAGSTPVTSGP
B3: 14-3-3 protein sigma (Homo sapiens), P31947 (parent)
chain: B1 chain
partner: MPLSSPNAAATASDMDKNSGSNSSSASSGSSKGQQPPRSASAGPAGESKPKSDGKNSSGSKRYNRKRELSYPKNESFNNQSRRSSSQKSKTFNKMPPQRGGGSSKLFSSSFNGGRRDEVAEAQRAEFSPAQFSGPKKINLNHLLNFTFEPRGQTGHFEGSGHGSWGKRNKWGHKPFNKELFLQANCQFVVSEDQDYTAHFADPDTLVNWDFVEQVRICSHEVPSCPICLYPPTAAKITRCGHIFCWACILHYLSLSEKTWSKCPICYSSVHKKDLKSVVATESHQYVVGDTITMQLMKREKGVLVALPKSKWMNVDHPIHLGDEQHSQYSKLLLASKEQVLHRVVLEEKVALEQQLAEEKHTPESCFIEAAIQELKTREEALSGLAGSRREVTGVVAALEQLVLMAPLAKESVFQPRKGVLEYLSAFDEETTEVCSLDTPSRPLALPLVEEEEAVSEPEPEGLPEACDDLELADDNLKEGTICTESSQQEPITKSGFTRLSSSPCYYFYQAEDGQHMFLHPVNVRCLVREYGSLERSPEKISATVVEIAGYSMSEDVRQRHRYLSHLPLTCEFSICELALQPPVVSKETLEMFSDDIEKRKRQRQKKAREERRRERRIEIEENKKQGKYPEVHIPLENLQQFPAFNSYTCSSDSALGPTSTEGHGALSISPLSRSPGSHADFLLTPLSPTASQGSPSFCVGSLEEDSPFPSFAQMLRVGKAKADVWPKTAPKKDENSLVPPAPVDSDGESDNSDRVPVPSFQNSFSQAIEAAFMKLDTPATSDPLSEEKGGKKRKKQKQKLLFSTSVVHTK
B4: 14-3-3 protein sigma (Homo sapiens), P31947 (parent)
chain: B1 chain
partner: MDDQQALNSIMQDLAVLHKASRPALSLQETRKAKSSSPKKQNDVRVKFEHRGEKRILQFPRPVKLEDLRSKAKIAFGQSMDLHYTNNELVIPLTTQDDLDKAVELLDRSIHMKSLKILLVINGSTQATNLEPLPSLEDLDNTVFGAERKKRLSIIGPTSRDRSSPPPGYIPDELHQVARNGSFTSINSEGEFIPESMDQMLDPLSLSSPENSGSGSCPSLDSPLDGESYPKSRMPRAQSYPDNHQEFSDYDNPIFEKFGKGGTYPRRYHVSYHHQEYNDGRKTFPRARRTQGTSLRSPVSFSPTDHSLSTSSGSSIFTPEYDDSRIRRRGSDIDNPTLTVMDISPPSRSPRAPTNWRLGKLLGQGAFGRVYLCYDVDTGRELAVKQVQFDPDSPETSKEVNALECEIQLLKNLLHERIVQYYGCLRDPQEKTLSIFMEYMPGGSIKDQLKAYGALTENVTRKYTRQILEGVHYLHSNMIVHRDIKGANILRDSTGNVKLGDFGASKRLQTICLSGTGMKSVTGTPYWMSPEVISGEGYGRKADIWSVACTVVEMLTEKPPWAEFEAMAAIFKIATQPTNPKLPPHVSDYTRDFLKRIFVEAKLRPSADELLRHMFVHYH
B5: 14-3-3 protein sigma (Homo sapiens), P31947 (parent)
chain: B1 chain
partner: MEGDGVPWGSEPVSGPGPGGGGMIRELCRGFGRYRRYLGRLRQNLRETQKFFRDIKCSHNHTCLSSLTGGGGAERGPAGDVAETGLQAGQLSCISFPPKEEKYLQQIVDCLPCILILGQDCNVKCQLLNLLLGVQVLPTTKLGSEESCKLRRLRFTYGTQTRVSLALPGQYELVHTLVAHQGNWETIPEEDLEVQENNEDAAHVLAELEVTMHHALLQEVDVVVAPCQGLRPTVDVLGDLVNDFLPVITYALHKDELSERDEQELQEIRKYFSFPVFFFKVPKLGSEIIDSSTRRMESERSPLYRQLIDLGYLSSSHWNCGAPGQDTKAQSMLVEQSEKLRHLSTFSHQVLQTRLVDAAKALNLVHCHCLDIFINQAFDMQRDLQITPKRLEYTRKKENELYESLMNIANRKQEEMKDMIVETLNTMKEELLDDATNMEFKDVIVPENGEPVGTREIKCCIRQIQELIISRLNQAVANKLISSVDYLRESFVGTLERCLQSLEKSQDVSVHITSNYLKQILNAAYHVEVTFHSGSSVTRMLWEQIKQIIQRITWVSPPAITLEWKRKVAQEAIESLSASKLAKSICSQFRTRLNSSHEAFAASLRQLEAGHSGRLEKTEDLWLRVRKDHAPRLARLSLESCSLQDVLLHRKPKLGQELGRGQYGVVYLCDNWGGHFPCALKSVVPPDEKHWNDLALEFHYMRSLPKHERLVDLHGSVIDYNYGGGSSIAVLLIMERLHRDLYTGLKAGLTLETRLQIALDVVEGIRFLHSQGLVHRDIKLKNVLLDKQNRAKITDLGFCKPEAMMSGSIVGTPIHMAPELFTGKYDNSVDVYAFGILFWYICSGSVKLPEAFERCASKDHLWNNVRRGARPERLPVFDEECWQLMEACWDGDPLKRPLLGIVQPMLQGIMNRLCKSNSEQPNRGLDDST

Variants of B1 are the subject of the first experiment. The settings on record: with plk4_human PLK4, O00444.
On to K49E;R56E;V178D, for which the “effect of a mutation on the interaction” value was “decreasing interaction strength”.

The next experiment covers variants of B2. The following applies: with m3k6_human MAP3K6, O95382.
With K49E;R56E;V178D, the “effect of a mutation on the interaction” value is given as “decreasing interaction strength”.

In a further experiment the parent is B3. The following applies: with rnf10_human RNF10, Q8N5U6.
Take K49E;R56E;V178D: the “effect of a mutation on the interaction” value is listed as “decreasing interaction strength”.

In the next experiment the parent is B4. The settings on record: with m3k2_human MAP3K2, Q9Y2U5.
For K49E;R56E;V178D, the “effect of a mutation on the interaction” value is “decreasing interaction strength”.

Variants of B5 are the subject of another experiment. The following applies: with dusty_human DSTYK.
For K49E;R56E;V178D, the “effect of a mutation on the interaction” value is “decreasing interaction strength”.
